# Assay results taken from patent publication US20110177504A1.
# Target: murine LY6C polypeptide on YAMC cells (murine) (UniProt P0CW02)
# Test: cell-based or functional assay
# Chain of UniProt P0CW02 (P0CW02 27-109 limits assumed): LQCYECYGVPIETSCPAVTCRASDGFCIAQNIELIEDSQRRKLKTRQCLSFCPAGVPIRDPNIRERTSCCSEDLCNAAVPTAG
substance,measurement,value
"Anti-LY6C (clone HK1.4), Southern Biotech (antibody)","CCL2 mRNA, quantitative RT-PCR, YAMC cells on plate-bound antibody 24 h, IFN pre-treatment",16.1 fold change
same,"CCL2 mRNA, quantitative RT-PCR, YAMC cells on plate-bound antibody 24 h, Media pre-treatment",8.81 fold change
same,"CCL4 mRNA, quantitative RT-PCR, YAMC cells on plate-bound antibody 24 h, IFN pre-treatment",16.1 fold change
same,"CCL4 mRNA, quantitative RT-PCR, YAMC cells on plate-bound antibody 24 h, Media pre-treatment",3.15 fold change
same,"CCL5 mRNA, quantitative RT-PCR, YAMC cells on plate-bound antibody 24 h, IFN pre-treatment",10.1 fold change
same,"CCL5 mRNA, quantitative RT-PCR, YAMC cells on plate-bound antibody 24 h, Media pre-treatment",3.31 fold change
same,"CCL7 mRNA, quantitative RT-PCR, YAMC cells on plate-bound antibody 24 h, IFN pre-treatment",5.81 fold change
same,"CCL7 mRNA, quantitative RT-PCR, YAMC cells on plate-bound antibody 24 h, Media pre-treatment",3.37 fold change
same,"CCL8 mRNA, quantitative RT-PCR, YAMC cells on plate-bound antibody 24 h, IFN pre-treatment",110 fold change
same,"CCL8 mRNA, quantitative RT-PCR, YAMC cells on plate-bound antibody 24 h, Media pre-treatment",12.8 fold change
same,"CCL25 mRNA, quantitative RT-PCR, YAMC cells on plate-bound antibody 24 h, IFN pre-treatment",1.46 fold change
same,"CCL25 mRNA, quantitative RT-PCR, YAMC cells on plate-bound antibody 24 h, Media pre-treatment",1.16 fold change
same,"CXCL1 mRNA, quantitative RT-PCR, YAMC cells on plate-bound antibody 24 h, IFN pre-treatment",13.4 fold change
same,"CXCL1 mRNA, quantitative RT-PCR, YAMC cells on plate-bound antibody 24 h, Media pre-treatment",11.6 fold change
same,"CXCL2 mRNA, quantitative RT-PCR, YAMC cells on plate-bound antibody 24 h, IFN pre-treatment",113 fold change
same,"CXCL2 mRNA, quantitative RT-PCR, YAMC cells on plate-bound antibody 24 h, Media pre-treatment",21.8 fold change
same,"CXCL5 mRNA, quantitative RT-PCR, YAMC cells on plate-bound antibody 24 h, IFN pre-treatment",151 fold change
same,"CXCL5 mRNA, quantitative RT-PCR, YAMC cells on plate-bound antibody 24 h, Media pre-treatment",118 fold change
same,"CXCL10 mRNA, quantitative RT-PCR, YAMC cells on plate-bound antibody 24 h, IFN pre-treatment",12.2 fold change
same,"CXCL10 mRNA, quantitative RT-PCR, YAMC cells on plate-bound antibody 24 h, Media pre-treatment",5.11 fold change
same,"CXCL12 mRNA, quantitative RT-PCR, YAMC cells on plate-bound antibody 24 h, IFN pre-treatment",-3.02 fold change
same,"CXCL12 mRNA, quantitative RT-PCR, YAMC cells on plate-bound antibody 24 h, Media pre-treatment",-1.99 fold change
same,"lowest coating concentration of antibody giving detectable CXCL5 secretion, ELISA",1 µg/mL
